± gives the uncertainty stated by the source.
B1: POU domain, class 4, transcription factor 2, residues 256 to 327; numbered along this chain, Q12837 (parent)
chain: RDLEAFAERFKQRRIKLGVTQADVGSALANLKIPGVGSLSQSTICRFESLTLSHNNMIALKPILQAWLEEAE
B2: RAS guanyl-releasing protein 1, residues 539 to 593; numbered along this chain, O95267 (parent)
chain: GFPHNFQETTYLKPTFCDNCAGFLWGVIKQGYRCKDCGMNCHKQCKDLVVFECKK

Variants of: B1
Assay: abundance fitness (aPCA) (normalised: wild type 0, dead -1); higher = more abundant; growth selection in yeast, the domain comes from the species named
Details: Homo sapiens

**Q.** Which abundance fitness does the source give for RELEAFAERFKQRRIKLGVTQADVGSALANLKIPGVGSLSQSTICRFESLTLSHNNMIALKPILQAWLEEAE here?
**A.** -0.102 ± 0.13

**Q.** With RCLEAFAERFKQRRIKLGVTQADVGSALANLKIPGVGSLSQSTICRFESLTLSHNNMIALKPILQAWLEEAE as the variant, how does the abundance fitness read?
**A.** -0.511 ± 0.32

**Q.** Which abundance fitness does the source give for RALEAFAERFKQRRIKLGVTQADVGSALANLKIPGVGSLSQSTICRFESLTLSHNNMIALKPILQAWLEEAE here?
**A.** -0.241 ± 0.074

**Q.** For RFLEAFAERFKQRRIKLGVTQADVGSALANLKIPGVGSLSQSTICRFESLTLSHNNMIALKPILQAWLEEAE, which abundance fitness is on record?
**A.** -0.376 ± 0.2

**Q.** With RGLEAFAERFKQRRIKLGVTQADVGSALANLKIPGVGSLSQSTICRFESLTLSHNNMIALKPILQAWLEEAE as the variant, how does the abundance fitness read?
**A.** -0.21 ± 0.054

**Q.** Which abundance fitness does the source give for VDLEAFAERFKQRRIKLGVTQADVGSALANLKIPGVGSLSQSTICRFESLTLSHNNMIALKPILQAWLEEAE here?
**A.** -0.107 ± 0.088

**Q.** Which abundance fitness does the source give for SDLEAFAERFKQRRIKLGVTQADVGSALANLKIPGVGSLSQSTICRFESLTLSHNNMIALKPILQAWLEEAE here?
**A.** -0.235 ± 0.087

**Q.** With TDLEAFAERFKQRRIKLGVTQADVGSALANLKIPGVGSLSQSTICRFESLTLSHNNMIALKPILQAWLEEAE as the variant, how does the abundance fitness read?
**A.** -0.186 ± 0.14

**Q.** With WDLEAFAERFKQRRIKLGVTQADVGSALANLKIPGVGSLSQSTICRFESLTLSHNNMIALKPILQAWLEEAE as the variant, how does the abundance fitness read?
**A.** -0.143 ± 0.12

**Q.** With LDLEAFAERFKQRRIKLGVTQADVGSALANLKIPGVGSLSQSTICRFESLTLSHNNMIALKPILQAWLEEAE as the variant, how does the abundance fitness read?
**A.** -0.354 ± 0.2

**Q.** For GDLEAFAERFKQRRIKLGVTQADVGSALANLKIPGVGSLSQSTICRFESLTLSHNNMIALKPILQAWLEEAE, which abundance fitness is on record?
**A.** 0.055 ± 0.078

**Q.** With PDLEAFAERFKQRRIKLGVTQADVGSALANLKIPGVGSLSQSTICRFESLTLSHNNMIALKPILQAWLEEAE as the variant, how does the abundance fitness read?
**A.** -0.199 ± 0.33

**Q.** For CDLEAFAERFKQRRIKLGVTQADVGSALANLKIPGVGSLSQSTICRFESLTLSHNNMIALKPILQAWLEEAE, which abundance fitness is on record?
**A.** -0.445 ± 0.14

**Q.** With EDLEAFAERFKQRRIKLGVTQADVGSALANLKIPGVGSLSQSTICRFESLTLSHNNMIALKPILQAWLEEAE as the variant, how does the abundance fitness read?
**A.** 0.368 ± 0.47

**Q.** With ADLEAFAERFKQRRIKLGVTQADVGSALANLKIPGVGSLSQSTICRFESLTLSHNNMIALKPILQAWLEEAE as the variant, how does the abundance fitness read?
**A.** 0.078 ± 0.093

Variants of: B2
Assay: as above
Details: Homo sapiens

**Q.** For GFPHNFQETTYLKPTFCDNCAGFLWGVIKQGYRCKDCGMNCHKQCKDLVVFECGK, which abundance fitness is on record?
**A.** -0.303 ± 0.1

**Q.** Which abundance fitness does the source give for GFPHNFQETTYLKPTFCDNCAGFLWGVIKQGYRCKDCGMNCHKQCKDLVVFECCK here?
**A.** -0.157 ± 0.046

**Q.** For GFPHNFQETTYLKPTFCDNCAGFLWGVIKQGYRCKDCGMNCHKQCKDLVVFECFK, which abundance fitness is on record?
**A.** -0.228 ± 0.092

**Q.** With GFPHNFQETTYLKPTFCDNCAGFLWGVIKQGYRCKDCGMNCHKQCKDLVVFECMK as the variant, how does the abundance fitness read?
**A.** 0.018 ± 0.098

**Q.** Which abundance fitness does the source give for GFPHNFQETTYLKPTFCDNCAGFLWGVIKQGYRCKDCGMNCHKQCKDLVVFECDK here?
**A.** -0.186 ± 0.15

**Q.** Which abundance fitness does the source give for GFPHNFQETTYLKPTFCDNCAGFLWGVIKQGYRCKDCGMNCHKQCKDLVVFECQK here?
**A.** -0.113 ± 0.16

**Q.** For GFPHNFQETTYLKPTFCDNCAGFLWGVIKQGYRCKDCGMNCHKQCKDLVVFECHK, which abundance fitness is on record?
**A.** -0.567 ± 0.27

**Q.** Which abundance fitness does the source give for GFPHNFQETTYLKPTFCDNCAGFLWGVIKQGYRCKDCGMNCHKQCKDLVVFECWK here?
**A.** -0.378 ± 0.13

**Q.** With GFPHNFQETTYLKPTFCDNCAGFLWGVIKQGYRCKDCGMNCHKQCKDLVVFECIK as the variant, how does the abundance fitness read?
**A.** -0.266 ± 0.12

**Q.** With GFPHNFQETTYLKPTFCDNCAGFLWGVIKQGYRCKDCGMNCHKQCKDLVVFECRK as the variant, how does the abundance fitness read?
**A.** -0.028 ± 0.076

**Q.** With GFPHNFQETTYLKPTFCDNCAGFLWGVIKQGYRCKDCGMNCHKQCKDLVVFECNK as the variant, how does the abundance fitness read?
**A.** -0.113 ± 0.089

**Q.** For GFPHNFQETTYLKPTFCDNCAGFLWGVIKQGYRCKDCGMNCHKQCKDLVVFECLK, which abundance fitness is on record?
**A.** -0.269 ± 0.087

**Q.** With GFPHNFQETTYLKPTFCDNCAGFLWGVIKQGYRCKDCGMNCHKQCKDLVVFECEK as the variant, how does the abundance fitness read?
**A.** -0.103 ± 0.1

**Q.** Which abundance fitness does the source give for GFPHNFQETTYLKPTFCDNCAGFLWGVIKQGYRCKDCGMNCHKQCKDLVVFECVK here?
**A.** -0.248 ± 0.076

**Q.** For GFPHNFQETTYLKPTFCDNCAGFLWGVIKQGYRCKDCGMNCHKQCKDLVVFECPK, which abundance fitness is on record?
**A.** -0.586 ± 0.31

**Q.** For GFPHNFQETTYLKPTFCDNCAGFLWGVIKQGYRCKDCGMNCHKQCKDLVVFECAK, which abundance fitness is on record?
**A.** -0.233 ± 0.1

**Q.** For GFPHNFQETTYLKPTFCDNCAGFLWGVIKQGYRCKDCGMNCHKQCKDLVYFECKK, which abundance fitness is on record?
**A.** -0.231 ± 0.12

**Q.** Which abundance fitness does the source give for GFPHNFQETTYLKPTFCDNCAGFLWGVIKQGYRCKDCGMNCHKQCKDLVWFECKK here?
**A.** -0.121 ± 0.071

**Q.** For GFPHNFQETTYLKPTFCDNCAGFLWGVIKQGYRCKDCGMNCHKQCKDLVVFECKE, which abundance fitness is on record?
**A.** -0.242 ± 0.31

**Q.** For GFPHNFQETTYLKPTFCDNCAGFLWGVIKQGYRCKDCGMNCHKQCKDLVVFECKD, which abundance fitness is on record?
**A.** -0.528 ± 0.24

**Q.** With GFPHNFQETTYLKPTFCDNCAGFLWGVIKQGYRCKDCGMNCHKQCKDLVVFECKH as the variant, how does the abundance fitness read?
**A.** -0.597 ± 0.26

**Q.** With GFPHNFQETTYLKPTFCDNCAGFLWGVIKQGYRCKDCGMNCHKQCKDLVVFECKL as the variant, how does the abundance fitness read?
**A.** -0.718 ± 0.32

**Q.** For GFPHNFQETTYLKPTFCDNCAGFLWGVIKQGYRCKDCGMNCHKQCKDLVVFECKG, which abundance fitness is on record?
**A.** -0.084 ± 0.14

**Q.** For GFPHNFQETTYLKPTFCDNCAGFLWGVIKQGYRCKDCGMNCHKQCKDLVVFECKS, which abundance fitness is on record?
**A.** 0.077 ± 0.13

**Q.** With GFPHNFQETTYLKPTFCDNCAGFLWGVIKQGYRCKDCGMNCHKQCKDLVVFECKT as the variant, how does the abundance fitness read?
**A.** -0.271 ± 0.16

**Q.** With GFPHNFQETTYLKPTFCDNCAGFLWGVIKQGYRCKDCGMNCHKQCKDLVVFECKN as the variant, how does the abundance fitness read?
**A.** -0.138 ± 0.18

**Q.** Which abundance fitness does the source give for GFPHNFQETTYLKPTFCDNCAGFLWGVIKQGYRCKDCGMNCHKQCKDLVVFECKR here?
**A.** -0.435 ± 0.37

**Q.** For GFPHNFQETTYLKPTFCDNCAGFLWGVIKQGYRCKDCGMNCHKQCKDLVVFEEKK, which abundance fitness is on record?
**A.** -0.209 ± 0.11

**Q.** Which abundance fitness does the source give for GFPHNFQETTYLKPTFCDNCAGFLWGVIKQGYRCKDCGMNCHKQCKDLVVFEQKK here?
**A.** 0.043 ± 0.077

**Q.** Which abundance fitness does the source give for GFPHNFQETTYLKPTFCDNCAGFLWGVIKQGYRCKDCGMNCHKQCKDLVVFEFKK here?
**A.** -0.32 ± 0.16

**Q.** With GFPHNFQETTYLKPTFCDNCAGFLWGVIKQGYRCKDCGMNCHKQCKDLVVFENKK as the variant, how does the abundance fitness read?
**A.** 0.13 ± 0.13

Reference: the Human Domainome abundance scans (Beltran et al. 2025)
